Laboratory results taken from patent US20250109177A1, “EVOLVED PROTEIN DEGRONS” (The Broad Institute, Inc., priority 2022, published 2025).
Each block holds one binder with its values, some of them ahead of it. Where no end group is shown, it is not given here.

Molecular target: CRBN of HEK293T cells, with PT-179 (human) (UniProt Q96SW2)
Experiment: cell-based or functional assay

CRBN of HEK293T cells, with PT-179 (human), sequence (Q96SW2 whole entry): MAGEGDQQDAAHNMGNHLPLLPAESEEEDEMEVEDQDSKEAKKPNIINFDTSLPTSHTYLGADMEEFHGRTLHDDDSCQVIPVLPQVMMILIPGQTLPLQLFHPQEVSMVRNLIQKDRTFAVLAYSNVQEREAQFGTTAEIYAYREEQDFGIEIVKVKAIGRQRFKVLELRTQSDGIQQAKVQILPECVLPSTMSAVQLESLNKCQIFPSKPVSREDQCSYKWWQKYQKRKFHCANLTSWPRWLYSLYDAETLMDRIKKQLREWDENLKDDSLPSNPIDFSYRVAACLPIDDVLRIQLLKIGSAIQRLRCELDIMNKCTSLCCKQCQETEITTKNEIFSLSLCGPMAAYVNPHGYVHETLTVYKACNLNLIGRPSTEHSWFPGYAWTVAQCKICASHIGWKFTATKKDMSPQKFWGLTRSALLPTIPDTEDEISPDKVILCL

DC50 of PT-179-induced degradation of degron-tagged eGFP in HEK293T cells: 5 nM
B1: SD40-eGFP (degron fused to the N-terminus of eGFP) (designed binder, not shown: large carriers)
chain: LLLFCPICGFTCRQKGNLLRHINLHTGEKLFKYHLY-eGFP
modifications: cysteine pairing not given here

DC50 of PT-179-induced degradation of degron-tagged eGFP in HEK293T cells: 14 nM
B2: SD36-tagged eGFP (degron fused to the N-terminus of eGFP) (designed binder, not shown: large carriers)
chain: FNVLMVHKRSHTGELLLFCPICGFTCRQKGNLLRHINLHTGEKLFKYHLYNYACQRRDAL-eGFP
modifications: cysteine pairing not given here
